According to patent publication US20250361274A1, “PEPTIDE AND PEPTIDE-CONTAINING AGENT” (PEPTIDREAM INC., priority 2022, published 2025):
Where two headings read alike, the source gives them in different places. One block for each molecule: values may come before it. Numbered stars: 1 amine (or outer) side, 2 acyl side, 3 side chain; on linkers, the order of the positions; unused ones are H or OH. Bridge positions count the residues as written; N and C are the ends. Square brackets hold non-standard residues; d marks the D form. Peptide text beside a SMILES is read from it. KCOpipzaa = N6-(4-(carboxymethyl)piperazine-1-carbonyl)-L-lysine, O=C(NCCCC[C@H](N[*:1])C(=O)[*:2])N1CCN(CC(=O)[*:3])CC1; 3Pal(6-Ph) = N[C@@H](Cc1ccc(-c2ccccc2)nc1)C(=O)O; Phe(4-COOH) = N[C@@H](Cc1ccc(C(=O)O)cc1)C(=O)O; NMePhe(4-Me) = CN[C@@H](Cc1ccc(C)cc1)C(=O)O; Bip = N[C@@H](Cc1ccc(-c2ccccc2)cc1)C(=O)O; Phe(4-F) = N[C@@H](Cc1ccc(F)cc1)C(=O)O; Ala(4-THP) = N[C@@H](CC1CCOCC1)C(=O)O; cisHyp = O=C(O)[C@@H]1C[C@H](O)CN1; NMeF = CN[C@@H](Cc1ccccc1)C(=O)O; Aad = N[C@@H](CCCC(=O)O)C(=O)O; Cha = N[C@@H](CC1CCCCC1)C(=O)O; βAla = NCCC(=O)O

How the values were obtained:
BMP7 [1] = target: T1, BMP7 (Homo sapiens, UniProt P18075); assay: BMP7 signal transduction inhibitory activity: SMAD1 phosphorylation by BMP7 stimulus, A549 cells; format: cell-based
T1 sequence (P18075 293-431): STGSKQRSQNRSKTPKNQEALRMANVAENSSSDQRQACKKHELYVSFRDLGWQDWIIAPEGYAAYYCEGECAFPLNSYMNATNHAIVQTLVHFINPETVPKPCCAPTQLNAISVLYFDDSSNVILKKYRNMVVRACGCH
Procedure, shortened: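 A549 cells were stimulated with 10 nM BMP7, and the read-out was SMAD1 phosphorylation. Peptides were tested at three concentrations spanning 1 to 1,000 nM, with sets depending on the peptide series. Some peptides were run in eight-point 1/3 dilutions starting from 100 nM or 1,000 nM, with recombinant human Noggin as positive control at matching concentrations.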

BMP4 [2] = target: T2, BMP4 (Homo sapiens, UniProt P12644); assay: BMP4 signal transduction inhibitory activity: SMAD1 phosphorylation by BMP4 stimulus, AlphaLISA SureFire, A549 cells; format: cell-based
T2 sequence (P12644 293-408): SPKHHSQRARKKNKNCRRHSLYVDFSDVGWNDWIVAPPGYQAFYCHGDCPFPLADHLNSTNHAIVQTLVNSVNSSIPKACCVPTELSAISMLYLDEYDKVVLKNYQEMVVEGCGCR

BMP7 [3] = target: T3, BMP7 (UniProt P18075 293-431); assay: cell-based or functional assay
T3 sequence (looked up): T1 sequence (P18075 293-431)

BMP6 = target: T4, BMP6 (UniProt P22004 382-513, limits assumed); assay: cell-based or functional assay
T4 sequence (looked up): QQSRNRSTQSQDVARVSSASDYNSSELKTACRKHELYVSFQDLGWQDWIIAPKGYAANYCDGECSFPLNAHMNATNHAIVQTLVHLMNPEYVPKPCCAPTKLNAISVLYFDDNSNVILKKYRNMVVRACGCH

BMP5 = target: T5, BMP5 (UniProt P22003 317-454, limits assumed); assay: cell-based or functional assay
T5 sequence (looked up): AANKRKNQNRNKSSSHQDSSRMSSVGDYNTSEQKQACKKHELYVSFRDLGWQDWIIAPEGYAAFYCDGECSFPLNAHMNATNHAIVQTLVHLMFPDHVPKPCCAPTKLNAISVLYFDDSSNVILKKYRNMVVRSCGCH

BMP4 [4] = target: T6, BMP4 (UniProt P12644 293-408); assay: cell-based or functional assay
T6 sequence (looked up): T2 sequence (P12644 293-408)

BMP7 [5] = target: T3, BMP7; assay: cell-based or functional assay; remark: listed apart in the source

Molecule: Cc1ccc(C[C@H]2C(=O)N[C@@H](CC(C)C)C(=O)N3C[C@@H](O)C[C@H]3C(=O)N[C@H](C(=O)NCCC(=O)N[C@H](CCC(=O)O)C(=O)O)CSCC(=O)N[C@@H](Cc3ccc(F)cc3)C(=O)NCC(=O)N(C)[C@@H](Cc3ccccc3)C(=O)NCC(=O)N[C@@H](Cc3ccc(-c4ccccc4)nc3)C(=O)NCC(=O)N[C@@H](CC(=O)O)C(=O)N[C@@H](CCC(=O)O)C(=O)N[C@@H](CC3CCCCC3)C(=O)N[C@@H](CCCC(=O)O)C(=O)N2C)cc1 [compound 417] ({CH2CO}-[Phe(4-F)]G[NMeF]G[3Pal(6-Ph)]GDE[Cha][Aad][NMePhe(4-Me)]L[cisHyp]C[βAla][dE]-OH; thioether N-14)
aLISA BMP7 (10 nM) % inh (BMP7 [1]; BMP7 10 nM stimulus, peptide conc. in assay 1, 10, 100 nM): C (showed less than 30% of inhibitory activity in a zone to which the peptide was added in an amount of 1 nM and showed 30% or more of inhibitory activity in 10 nM-addition zone)
aLISA BMP4 (0.2 nM) % inh (BMP4 [2]; BMP4 0.2 nM stimulus, peptide conc. in assay 0.2, 2, 20 nM): ND (the inhibitory activity was less than 30% at the maximum concentration evaluated)

B2: BMP4 signal transduction inhibition peptide No. 181 (peptide)
peptide: {CH2CO}-ERV[Phe(4-COOH)][Ala(4-THP)][KCOpipzaa]R[Bip]PYP[Bip]Y[Phe(4-COOH)][Phe(4-COOH)]SC[βAla][dE]-OH
modifications: thioether N-17 (inferred)
IC50 (nM), SMAD1 phosphorylation in A549 cells (BMP4 [4]): 0.052 nM
IC50 (nM), SMAD1 phosphorylation in A549 cells (BMP7 [5]): 1.6 nM

B3: BMP4 signal transduction inhibition peptide No. 87 (SEQ ID NO: 87) (peptide)
peptide: {CH2CO}-ERVYVDR[3Pal(6-Ph)]SYV[Bip]Y[Phe(4-COOH)][Phe(4-COOH)]SCG-NH2
modifications: thioether N-17 (inferred)
IC50 (nM), SMAD1 phosphorylation in A549 cells (BMP4 [4]): 0.08 nM

Results, then the molecule that gave them:

IC50 (nM), SMAD1 phosphorylation in A549 cells (BMP7 [3]): 15.6 nM
IC50, SMAD1 phosphorylation, BMP6 3 nM (BMP6): 28.7 nM
IC50, SMAD1 phosphorylation, BMP5 2 nM (BMP5): 19.3 nM
B1: BMP7 signal transduction inhibition peptide SEQ ID NO: 417 (Example 6) (peptide)
peptide: {CH2CO}-[Phe(4-F)]G[NMeF]G[3Pal(6-Ph)]GDE[Cha][Aad][NMePhe(4-Me)]L[cisHyp]C[βAla][dE]-OH
modifications: thioether N-14 (inferred)

IC50 (BMP7 [1]; Table 2-2, 277 from 1,000 nM (1/3), 417 from 300 nM (1/4)): 5.74 nM
IC50 (BMP7 [1]; Table 2, eight concentrations, ratio 1/3 from 100 nM, ND = IC50 was not calculated in the evaluation systems): 2.7 nM
IC50 (BMP4 [2]; Table 2-2, 277 from 20 nM (1/3), 417 from 300 nM (1/4), ND = IC50 was not calculated): 0.13 nM
IC50 (BMP4 [2]; Table 2, eight concentrations, ratio 1/3 from 2 nM, A549 cells): 0.08 nM
B4: Noggin: recombinant Human Noggin Protein (R&D), positive control; secreted protein that has BMP inhibitory activity (protein)
chain: QHYLHIRPAPSDNLPLVDLIEHPDPIFDPKEKDLNETLLRSLLGGHYDPGFMATSPPEDRPGGGGGAAGGAEDLAELDQLLRQRPSGAMPSEIKGLEFSEGLAQGKKQRLSKKLRRKLQMWLWSQTFCPVLYAWNDLGSRFWPRYVKVGSCFSKRSCSVPEGMVCKPSKSVHLTVLRWRCQRRGGQRCGWIPIQYPIISECKCSC
